From patent US12648572B2, “Proteolytically stable U1-agatoxin-Ta1b variant polypeptides for pest control” (Vestaron Corporation, priority 2020, dated 2026)
“And” between values parts separate entries of the source, which are not always exact repeats. Equal entries are not always repeated.

Columns and labels:
[1] = system: Manduca Gut Extract (MGE); test: Manduca Gut Extract (MGE) digest of TVPs; format: in vitro ADME, Manduca sexta; conditions: for Fold Stability Improvement: in the presence of MGE, relative to Ta1b; for Half Life (min) Manduca Gut Extract (MGE): 1 mg/mL TVP, 1/10 diluted MGE, 50 mM Tris-HCl pH 8.8; for Fold Change (MGE): half life relative to WT Ta1b
Protocol: (§1) To determine the stability of TVPs when exposed to lepidopteran gut proteases. Briefly, 5th instar Manduca sexta were dissected by making a small incision to the intestinal lining such that gut contents could be collected in a tube. Multiple dissections were pooled and kept on ice for immediate use, or stored at −80° C. for future use. The isolated midgut (referred to hereinafter as Manduca Gut Extract, or MGE) was then for digest assays. Next, 1 mg/mL TVP was incubated with 0.1 mg/mL bovine trypsin, or 1/10 diluted MGE with 50 mM Tris-HCl, pH 8.8 to maintain alkaline pH. Time points were taken and the digest quenched with the addition of 200 mM HCl. Degradation was quantified by HPLC analysis and rates were determined by fit to a single exponential decay.
(§2) TVPs were assessed for stability in the presence of MGE (as described above). Activity was assessed by injection into houseflies (Musca domestica): […] intrathoracically into houseflies with an average mass of 18 mg. The dose required for 50% knockdown and mortality was determined at 24 hour post-injection.

[2] = system: houseflies (Musca domestica); test: Housefly injection assay; format: in vivo; conditions: for Activity relative to wild-type Ta1b, in words: housefly injection; for Fold Activity Reduction: housefly intrathoracic injection, 24 hour post-injection, relative to wild-type Ta1b; for Fly KD50: dose for 50% knockdown, 24 hours post-injection
Protocol: as §2
Activity of the TVPs identified in the mutant stability assay were assessed by injection into houseflies (Musca domestica). Wild-type Ta1b and the TVPs with amino acid substitutions at positions R9Q and R9N were injected intrathoracically into houseflies with an average mass of 18 mg, at an injection dose of 0.5 μL of toxin or control. The dose of TVP required for 50% knockdown (KD50) was then determined at 24-hours post-injection. […] FIG. 2.
The TVPs: (1) TVP-R9Q; (2) TVP-R9QΔG; (3) TVP-R9Q/T43A/ΔG; (4) TVP-R9Q/T43A; and (5) TVP-R9Q/T43A/ΔK-G, were analyzed in a housefly injection assay. Housefly injections were performed as previously described herein.

bovine trypsin = target: T1, bovine trypsin (Bos taurus, UniProt P00760); test: Bovine trypsin digest of TVPs; format: in vitro ADME; conditions: for Half Life (min) Bovine Trypsin: 1 mg/mL TVP, 0.1 mg/mL bovine trypsin, 50 mM Tris-HCl pH 8.8; for Trypsin digestion, in words: alanine scan of basic amino acids; for Fold Change (Trypsin): half life relative to WT Ta1b
T1 sequence (P00760 24-246): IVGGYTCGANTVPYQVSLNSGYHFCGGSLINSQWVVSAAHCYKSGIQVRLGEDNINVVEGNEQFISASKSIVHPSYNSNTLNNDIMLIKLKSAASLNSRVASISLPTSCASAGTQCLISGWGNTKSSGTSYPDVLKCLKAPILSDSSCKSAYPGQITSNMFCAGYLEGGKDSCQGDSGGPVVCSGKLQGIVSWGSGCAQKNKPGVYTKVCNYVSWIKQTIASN
Protocol: as §1
Lepidopteran gut contains trypsin-like proteases that cut after Arg or Lys amino acids; without wishing to be bound by any particular theory, we hypothesized that singly mutating these amino acids to alanine could identify the site(s) that are causing degradation in lepidopteran gut. To test the foregoing hypothesis, TVPs were created by individually mutating each basic amino acid to alanine present in the wild-type Ta1b amino acid sequence. Next, the stability of each of these TVPs was assessed by confronting the TVPs with the digestion conditions as described above.

[3] = system: neonate corn earworm (Helicoverpa zea); test: Corn earworm oral foliar bioassay; format: in vivo; conditions: sprayed lettuce leaf discs, fourth day, ± standard error of the mean
Protocol: In the oral foliar bioassay, the experimental unit consisted of 12 leaf discs (per peptide concentration) sprayed (front and back) with a total spray volume of 5.5 mL (2.75 mL for each side) on which neonate corn earworm (Helicoverpa zea) were allowed to feed. There were four experimental replicates per peptide.
Romaine lettuce was cut into 30 mm diameter disks, and then sterilized using a 140 ppm bleach solution; the disks were then triple rinsed in water. The romaine lettuce disks were then pinned to a Styrofoam board and sprayed with a given treatment; the disks were flipped, sprayed again, allowed to dry, and placed in the arena.
The arena was 32-well rearing tray containing 5 mL of 1% agar. One romaine lettuce disk was placed in each well, with a single first instar corn earworm (Helicoverpa zea) per leaf disk. The trays were then placed in a 28° C. Incubator.
Mortality of the corn earworms was evaluated on the fourth day after spraying and larvae application to the leaf discs. Larvae were scored as either alive (moving and feeding normally) or dead (immobile, discolored).

[4] = system: Helicoverpa gut extract (HGE); test: Helicoverpa gut extract (HGE) digest, position 9 scan; format: in vitro ADME, Helicoverpa zea; conditions: for Half-Life: 30 mM Tris-HCl pH 8.8, time points 0, 3, 22.5 hours
Protocol: To determine the stability of TVPs when exposed to lepidopteran gut proteases, early fifth instar Helicoverpa zea larvae were dissected to remove the intact digestive tract from other tissues and hemolymph. To obtain the Helicoverpa gut extract (HGE), a small incision was made to the intestinal lining such that gut contents could be collected in a tube. Multiple dissections were pooled and kept on ice for immediate use, or stored at −80° C. for future use.
Wild-type Ta1b (SEQ ID NO: 1) was used as a template, and mutated at amino acid substitution at position 9, (i.e., R9; SEQ ID NO: 1) to produce the TVPs evaluated here; these TVPs have a substitution of the arginine at position 9 (i.e., R9) of the wild-type amino acid sequence (SEQ ID NO: 1), with one of the amino acids F, P, Y, K, W, H, A, G, N, L, D, V, M, I, Q, C, E, T, and S; in addition, a TVP with an R9Q+T43A mutation (relative to wild-type Ta1b) was likewise evaluated (SEQ ID NO: 85).
The TVPs described above and shown in Table 19 were confronted with Helicoverpa gut extract (HGE) to simulate digestion in the lepidopteran gut environment. Here, the TVPs were incubated with 6× diluted amount of HGE obtained from Helicoverpa deep well cell growths. The 6× diluted UGE was supplemented with 30 mM Tris-HCl, pH 8.8, to maintain the alkaline pH of the Helicoverpa gut environment.
Samples of the digested TVPs were collected at time points of 0, 3, and 22.5 hours. To quench the digestion process, 30 mM Glycine, pH 2.0 was added to the samples, and the samples of the digested TVPs were immediately analyzed using reverse-phase HPLC to quantify the TVP peak area.

[5] = system: corn earworm (Helicoverpa zea); test: Corn earworm injection assay; format: in vivo; conditions: fourth instar larvae, 24 hours after injection; ± standard error of the mean
Protocol: First, WT Ta1b (WT) and the R9Q mutant of Ta1b (TVP-R9Q) were evaluated in a lepidopteran injection assay. The experimental unit consisted of 8 injected individual corn earworm (Helicoverpa zea) per peptide dose. There were four experimental replicates per peptide. Prior to injection, corn earworm larvae were reared to their fourth instar on standard lepidoptera diet. The larvae were weighed to determine accurate dose calculations. The exact doses varied slightly between replicates because of variations in corn earworm larvae mass, but the approximate doses injected were: 1000, 2000, 4000, and 8000 pmol/g. Injections were performed using a hand microapplicator and a syringe fitted with a 30 gauge needle. Larvae were injected at the base of one of their most posterior prolegs. Larvae were injected with 1 μL of treatment solution.
After injection, larvae were placed in a well of a 32-well tray filled with 5 mL of standard lepidoptera diet. The trays were then placed in a 28° C. Incubator. The condition of the larvae were evaluated 24 hours after injection.

A8N: TVP with substitution A8N (EPDEICRNRMTNKEFTYKSNVCNNCGDQVAACEAECFRNDVYTACHEAQKG; listed as Eratigena agrestis)
Fold Stability Improvement [1]: 1.8 fold

A8S: TVP with substitution A8S (EPDEICRSRMTNKEFTYKSNVCNNCGDQVAACEAECFRNDVYTACHEAQKG; listed as Eratigena agrestis)
Digestibility by Manduca Gut Extract (MGE), in words [1]: significant reduction in digestibility | Fold Stability Improvement [1]: 12.1 fold | Activity relative to wild-type Ta1b, in words [2]: maintain activity similar to the native Ta1b | Fold Activity Reduction [2]: 1.3 fold

EPDEICRAAMTNKEFTYKSNVCNNCGDQVAACEAECFRNDVYTACHEAQKG (TVP-R9A)
Half Life (min) Bovine Trypsin (bovine trypsin): >6000 min | Trypsin digestion, in words (bovine trypsin): completely abolished trypsin digestion | Fold Change (Trypsin) (bovine trypsin): >20 fold | Half Life (min) Manduca Gut Extract (MGE) [1]: 370 min | Fold Change (MGE) [1]: 247 fold | Fold Stability Improvement [1]: 247 fold | Fold Activity Reduction [2]: 9 fold and 8.7 fold

EPDEICRAEMTNKEFTYKSNVCNNCGDQVAACEAECFRNDVYTACHEAQKG (TVP-R9E)
Fold Activity Reduction [2]: >10 fold

EPDEICRAHMTNKEFTYKSNVCNNCGDQVAACEAECFRNDVYTACHEAQKG (TVP-R9H)
Fold Stability Improvement [1]: 16.2 fold | Fold Activity Reduction [2]: 2.5 fold

EPDEICRANMTNKEFTYKSNVCNNCGDQVAACEAECFRNDVYTACHEAQKG (TVP-R9N)
Digestibility by Manduca Gut Extract (MGE), in words [1]: significant reduction in digestibility | Fold Stability Improvement [1]: >50 fold | Activity relative to wild-type Ta1b, in words [2]: maintain activity similar to the native Ta1b | Fold Activity Reduction [2]: 1.5 fold

EPDEICRARMTNKEFTYKSNVCNNCGDQVAACEAECFRNDVYTACHEAQKG (listed as Eratigena agrestis) [WT Ta1b, reference compound]
Half Life (min) Bovine Trypsin (bovine trypsin): 288 min | Half Life (min) Manduca Gut Extract (MGE) [1]: 1.5 min | Oral Bioassay % Mortality at 3 ppt [3]: 6 ± 3% | Half-Life ([4]; 6× diluted HGE): 1.9 h | Fly KD50 [2]: 167 pmol/g | Injection LD50 [5]: 2933 ± 827 pmol/g

EPDEICRATMTNKEFTYKSNVCNNCGDQVAACEAECFRNDVYTACHEAQKG (TVP-R9T) [T (Position 9)]
Result (Stable/Unstable) ([4]; 6× diluted HGE): Stable | Half-Life ([4]; 6× diluted HGE): 95.8 h | Gut extract digestion, in words ([4]; 6× diluted gut extract, relative to wild type Ta1b): completely abolished UGE digestion

K18A: TVP: wild-type Ta1b with basic amino acid K18 mutated to alanine (EPDEICRARMTNKEFTYASNVCNNCGDQVAACEAECFRNDVYTACHEAQKG; listed as Eratigena agrestis)
Half Life (min) Bovine Trypsin (bovine trypsin): 1194 min | Trypsin digestion, in words (bovine trypsin): modest, albeit significant reduction in digestibility | Fold Change (Trypsin) (bovine trypsin): 4.1 fold

R38A: TVP: wild-type Ta1b with basic amino acid R38 mutated to alanine (EPDEICRARMTNKEFTYKSNVCNNCGDQVAACEAECFANDVYTACHEAQKG; listed as Eratigena agrestis)
Half Life (min) Bovine Trypsin (bovine trypsin): 1860 min | Trypsin digestion, in words (bovine trypsin): modest, albeit significant reduction in digestibility | Fold Change (Trypsin) (bovine trypsin): 6.5 fold | Half Life (min) Manduca Gut Extract (MGE) [1]: 19 min | Fold Change (MGE) [1]: 8.6 fold | Fold Stability Improvement [1]: 8.6 fold | Activity relative to wild-type Ta1b, in words [2]: did not show any reduction in activity | Fold Activity Reduction [2]: 1.0 fold

T11P: TVP with substitution T11P (EPDEICRARMPNKEFTYKSNVCNNCGDQVAACEAECFRNDVYTACHEAQKG; listed as Eratigena agrestis)
Digestibility by Manduca Gut Extract (MGE), in words [1]: significant reduction in digestibility | Fold Stability Improvement [1]: 92.9 fold | Activity relative to wild-type Ta1b, in words [2]: maintain activity similar to the native Ta1b | Fold Activity Reduction [2]: 1.4 fold

TVP-R9Q/ΔG: TVP-R9Q with the C-terminal glycine removed (EPDEICRAQMTNKEFTYKSNVCNNCGDQVAACEAECFRNDVYTACHEAQK; C-terminal Gly deleted; TVP-R9QdG)
Fly KD50 [2]: 136 pmol/g
